PMC12646051

Key:
[1] = target: β2-RF (full-length human BK β2 subunit with C-terminal mCherry-FLAG) (human) (UniProt Q9Y691); experiment: pull-down + SEC; plasmid weight ratio 1:0.2:1.8 (TR2)
[2] = target: hSlo1EM-TS (modified human Slo1 BK α subunit with a C-terminal twin-strep tag) (human) (UniProt Q12791); experiment: pull-down + SEC; as a3 but plasmid weight ratio 1:0.2:1.8 (TR2)
[3] = target: β2-RF (full-length human BK β2 subunit with C-terminal mCherry-FLAG) (human) (UniProt Q9Y691); experiment: as above
[4] = target: hSlo1EM-TS (modified human Slo1 BK α subunit with a C-terminal twin-strep tag) (human) (UniProt Q12791); experiment: pull-down + SEC; TR1 (1:1:1); three-step affinity purification: streptactin XT (Slo1), then anti-FLAG M2 resin (β2) and anti-ρ1D4 resin (β3) one after the other, in either order; eluates, input and flow-through read by dual-colour FSEC
[5] = target: β2-RF (full-length human BK β2 subunit with C-terminal mCherry-FLAG) (human) (UniProt Q9Y691); experiment: as above

Chain of β2-RF (full-length human BK β2 subunit with C-terminal mCherry-FLAG) (human) (Q9Y691 whole entry): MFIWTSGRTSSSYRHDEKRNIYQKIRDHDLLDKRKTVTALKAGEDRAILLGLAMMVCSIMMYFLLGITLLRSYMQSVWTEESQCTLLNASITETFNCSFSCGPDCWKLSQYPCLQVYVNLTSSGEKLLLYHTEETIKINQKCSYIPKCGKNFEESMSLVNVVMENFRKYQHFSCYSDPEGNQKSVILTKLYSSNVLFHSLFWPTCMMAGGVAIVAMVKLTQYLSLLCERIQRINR
Chain of β3-Gρ (full-length human BK β3a subunit with C-terminal eGFP-ρ1D4) (natural protein) (Q9NPA1 whole entry): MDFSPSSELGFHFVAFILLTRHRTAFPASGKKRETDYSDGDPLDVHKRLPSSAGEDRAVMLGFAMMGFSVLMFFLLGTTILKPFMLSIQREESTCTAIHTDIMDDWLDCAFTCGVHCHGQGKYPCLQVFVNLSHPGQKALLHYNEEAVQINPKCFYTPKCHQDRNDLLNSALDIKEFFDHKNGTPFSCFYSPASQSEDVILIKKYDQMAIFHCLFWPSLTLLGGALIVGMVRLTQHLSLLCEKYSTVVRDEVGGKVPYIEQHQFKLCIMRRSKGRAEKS
Chain of hSlo1EM-TS (modified human Slo1 BK α subunit with a C-terminal twin-strep tag) (human) (Q12791 whole entry): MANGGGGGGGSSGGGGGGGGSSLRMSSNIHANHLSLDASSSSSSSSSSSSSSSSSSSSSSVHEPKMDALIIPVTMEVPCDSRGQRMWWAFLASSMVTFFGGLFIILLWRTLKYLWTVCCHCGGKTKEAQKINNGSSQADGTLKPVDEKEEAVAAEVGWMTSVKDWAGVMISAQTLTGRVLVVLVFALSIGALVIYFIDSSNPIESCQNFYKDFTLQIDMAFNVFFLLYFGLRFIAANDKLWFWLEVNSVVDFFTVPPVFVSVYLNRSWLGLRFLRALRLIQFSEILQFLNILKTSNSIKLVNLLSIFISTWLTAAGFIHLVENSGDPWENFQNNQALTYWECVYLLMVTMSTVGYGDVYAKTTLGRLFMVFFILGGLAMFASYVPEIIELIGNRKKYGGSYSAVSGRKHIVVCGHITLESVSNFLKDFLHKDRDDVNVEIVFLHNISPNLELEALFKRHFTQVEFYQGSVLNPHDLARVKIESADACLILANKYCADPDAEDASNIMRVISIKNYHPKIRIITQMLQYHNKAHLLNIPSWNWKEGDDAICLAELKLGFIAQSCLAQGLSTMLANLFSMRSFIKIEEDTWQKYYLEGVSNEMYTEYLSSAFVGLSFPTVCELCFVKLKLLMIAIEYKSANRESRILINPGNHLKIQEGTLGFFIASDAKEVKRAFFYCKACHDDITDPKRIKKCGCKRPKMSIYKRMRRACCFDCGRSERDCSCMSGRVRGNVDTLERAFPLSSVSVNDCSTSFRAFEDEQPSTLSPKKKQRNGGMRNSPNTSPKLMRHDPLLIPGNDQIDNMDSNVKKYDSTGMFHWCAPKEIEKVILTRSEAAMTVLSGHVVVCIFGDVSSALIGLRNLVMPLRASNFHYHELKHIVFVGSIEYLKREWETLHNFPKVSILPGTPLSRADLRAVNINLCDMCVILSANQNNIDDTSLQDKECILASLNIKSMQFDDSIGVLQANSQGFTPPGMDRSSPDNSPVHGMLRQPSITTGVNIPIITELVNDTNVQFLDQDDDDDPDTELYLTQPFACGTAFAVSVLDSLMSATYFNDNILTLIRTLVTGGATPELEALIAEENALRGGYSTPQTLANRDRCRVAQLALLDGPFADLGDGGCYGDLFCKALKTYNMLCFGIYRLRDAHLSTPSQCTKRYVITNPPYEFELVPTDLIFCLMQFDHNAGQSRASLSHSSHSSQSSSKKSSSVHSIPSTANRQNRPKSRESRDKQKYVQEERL

Substance: β3-Gρ (full-length human BK β3a subunit with C-terminal eGFP-ρ1D4) (natural protein)
- molar ratio of β2-RF to β3-Gρ in the triply purified complex [1]: 0.89 mol/mol
- stoichiometry N (β3 per 4 Slo1) [2]: 2.1
- percent of total Slo1–β2 complexes that are ternary (hold β3 too) [3]: 58%
- stoichiometry N (β3 per 4 Slo1) [4]: 1.2
- molar ratio of β2-RF to β3-Gρ in the triply purified complex [5]: 2.33 mol/mol
- percent of total Slo1–β2 complexes that are ternary (hold β3 too) [5]: 14%
